Measured values reported in the supplement of paper PMC10567573.

B1: ATL3 (parent)
chain: QELEEEIKELYENFCKHNGSKNVF
B2: CHIT1 (parent)
chain: CSWKGATKQRIQDQKVPYIFRDNQ

Variants of: B1
Assay: protein stability index of a GFP-peptide fusion (GPS, HEK-293T) (PSI 1-6); higher = more stable
Conditions: c terminus: a fixed tail appended
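Also: lentivirally expressed fusions sorted by FACS into six bins by GFP to DsRed ratio, PSI derived from sequencing read proportions per bin multiplied by bin number.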

Protein stability index of substitutions, site by site:
C15: G 4.07 | W 3.73 | V 2.27 | T 3.5 | D 4.08 | K 3.49 | Y 3.77 | E 3.86 | Q 3.67 | N 3.97 | P 3.91 | M 2.02 | R 3.3 | I 2.07
E2: S 2.97 | T 3.43 | C 2.65 | W 1.9 | D 3.03 | I 2.36 | L 2.21 | Q 2.52 | H 2.62 | K 3.3 | M 2.54 | V 2.3 | Y 2.47
F14: A 4.29 | T 3.69 | L 3.27 | C 3.75 | H 4.07 | R 4.1 | Y 3.53 | M 4.06 | E 5.25 | K 4.5 | S 4.58
E6: F 1.93 | M 2.19 | V 2.08 | T 2.86 | S 2.85 | R 2.77 | K 2.48 | W 1.75
G19: P 3.03 | N 2.69 | V 2.35 | Y 2.85 | W 1.91 | D 2.46 | S 3.18 | L 2.55 | T 2.25 | I 2.99 | M 2.46
L10: E 4.5 | K 3.92 | Y 3.92 | H 4.33 | A 3.48 | I 3.14 | N 4.05 | V 4.12 | F 3.23 | M 3.02 | S 4.25 | G 4.41 | Q 3.88 | R 4.2
N13: A 1.72 | I 2.13 | R 2.55 | L 1.83 | V 2.89 | E 2.11 | H 2.83 | G 3.76 | T 2.86 | F 2.72 | P 3.73 | D 3.15 | M 1.79 | S 2.6 | Y 2.34
F24: Q 2.93 | H 3.37 | C 3.17 | V 3.01 | E 2.9 | S 3.28 | R 3.24 | A 3.45 | P 2.74 | N 3.07 | L 2.56 | Y 2.65
E4: F 2.2 | W 2.39 | C 2.81 | P 3.51 | A 1.97 | V 2.26 | K 2.8 | Y 2.31 | D 3.62 | T 3.34 | R 2.66 | L 2.47
I7: M 3.8 | Q 4.5 | Y 4.21 | N 4.52 | W 2.26 | R 4.17 | T 4.24 | P 4.5 | G 4.73 | V 3.75
L3: V 2.28 | T 3.83 | A 4.15 | G 4.49 | C 3.71 | Y 2.85 | S 4.62 | E 4.29 | D 4.33 | I 3.14
E12: P 3.31 | A 2.37 | I 2.27 | N 2.53 | M 2.41 | G 3.27 | Q 2.39 | C 2.35 | V 2.42 | S 3.13
H17: M 2.96 | S 2.62 | G 2.75 | K 2.67 | C 2.65 | W 2.46 | Q 2.44
N22: V 2.62 | E 2.38 | P 3.25 | I 2.48 | W 1.48 | Y 2.05 | K 3.17 | T 2.16 | M 2.8 | L 2.57
K8: Q 3.01 | R 2.24 | N 2.45 | S 3.37 | I 2.36 | W 2.68 | M 2.53 | L 2.24
V23: R 3.44 | D 2.16 | W 2.85 | L 2.68 | H 3.56 | Q 2.68 | P 2.61 | C 2.27 | Y 1.94 | E 3.07 | G 2.94 | N 3.06
S20: K 3.17 | R 3.77 | V 2.93 | C 2.28 | A 2.66 | Y 2.29 | N 2.48 | T 2.7 | F 2 | D 1.97 | M 2.24 | W 2.16 | Q 2.45
E9: C 2.69 | A 2.37 | M 2.47 | D 3.39 | S 2.39 | H 2.27 | W 2.41 | V 2.4 | Q 2.22 | L 1.64 | R 2.59 | K 2.38 | P 3.24 | N 2.77
K16: C 3.43 | E 3.81 | Q 3.11 | H 2.74 | Y 2.49 | N 2.36 | M 2.79
Y11: G 4.74 | P 5.15 | A 4.25 | S 4.61 | K 4.88 | Q 4.58 | D 5.09 | H 4.46 | M 3.96 | T 4.3 | R 4.39 | L 3.61 | I 3.64
E5: L 2.23 | W 1.73 | Q 1.81 | G 3.25 | T 2.45 | M 2.81 | K 2.21 | R 2.02 | Y 1.9 | C 2.33
Q1: A 2.22 | M 2.46 | L 1.76 | G 3.31 | K 2.31 | T 3.19 | W 2.03 | N 3.39 | R 2.31 | S 3.41 | E 3.67
N18: E 2.36 | D 2.28 | T 2.6 | W 2.85 | Q 2.68 | A 2.24 | F 2.3 | V 2.58 | K 2.55 | I 2.04 | Y 2.37 | C 2.75 | G 2.34 | L 3.23
K21: D 2.11 | A 2.25 | T 2.08 | S 1.57 | R 2.12 | L 2.15 | H 2.16 | G 2.49 | E 1.96 | P 2.37 | I 2.12 | M 1.85 | Y 1.55 | Q 2.55

Variants of: B2
Assay: as above
Conditions: c terminus: a fixed tail appended

Protein stability index, by site and new letter:
D22: F 1.35 | P 2.22 | T 2.18 | E 2.44 | I 1.57 | R 2.66 | L 2.06 | K 2.42 | H 1.72 | N 2.42 | C 1.66 | W 1.6 | A 2.57 | V 1.83 | M 2.43 | S 2.42 | G 3.03 | Q 2.33
R21: V 1.96 | M 2.44 | Y 2.72 | T 2.99 | W 1.87 | P 3.15 | S 3.12 | Q 2.64 | N 3.09
N23: Q 2.6 | R 2.82 | W 1.62 | K 3.05 | Y 2.11 | A 2.76 | C 1.91 | P 2.38 | S 2.2 | D 3.53 | H 1.99 | F 2.04 | L 1.89 | E 2.54 | I 2.56 | V 1.67
Q24: S 2.82 | A 2.29 | I 2.85 | T 2.75 | N 2.45 | C 3.02 | E 4.3 | P 2.48 | L 2.31 | Y 1.61 | G 2.18 | W 1.3 | F 2.01 | K 3.16 | V 2.16 | M 1.92 | D 3.34 | H 2.06
